# Laboratory results reported in article PMC11408855, “The structure of the SufS–SufE complex reveals interactions driving protected persulfide transfer in iron-sulfur cluster biogenesis” (The Journal of Biological Chemistry, 2024).
# Where a chain is given by its changes, count along the chain named. Numbers in names are those of the source.
# B1: BODIPY-FL-labeled T116A EcSufE in the C51A/E107C background (natural protein, Escherichia coli)
# chain: MALLPDKEKLLRNFLRCANWEEKYLYIIELGQRLPELRDEDRSPQNSIQGAQSQVWIVMRQNAQGIIELQGDSDAAIVKGLIAVVFILYDQMTPQDIVNFDVRPWFCKMALTQHLAPSRSQGLEAMIRAIRAKAAALS
# modifications: BODIPY-FL maleimide label (labeling efficiency 60 to 80%)
# notes: EcSufE of Escherichia coli, UniProt P76194, with C51A, E107C and T116A; also called T116A SufE; source: E. coli BL21(DE3)Δsuf, pET21, purified, labeled with BODIPY-FL maleimide
# B2: BODIPY-FL-labeled Q121A EcSufE in the C51A/E107C background (natural protein, Escherichia coli)
# chain: B1 chain with A116T, Q121A
# modifications: BODIPY-FL maleimide label (labeling efficiency 60 to 80%)
# notes: EcSufE of Escherichia coli, UniProt P76194, with C51A, E107C and Q121A; also called Q121A SufE; source: E. coli BL21(DE3)Δsuf, pET21, purified, labeled with BODIPY-FL maleimide
# B3: BODIPY-FL-labeled Q121E EcSufE in the C51A/E107C background (natural protein, Escherichia coli)
# chain: B1 chain with A116T, Q121E
# modifications: BODIPY-FL maleimide label (labeling efficiency 60 to 80%)
# notes: EcSufE of Escherichia coli, UniProt P76194, with C51A, E107C and Q121E; also called Q121E SufE; source: E. coli BL21(DE3)Δsuf, pET21, purified, labeled with BODIPY-FL maleimide
# B4: C51A/E107C EcSufE (unlabeled, crystallised) (natural protein, Escherichia coli)
# chain: B1 chain with A116T
# notes: EcSufE of Escherichia coli, UniProt P76194, with C51A and E107C; also called SufE C51A/E107C; SufE (C51A, E107C)
# B5: BODIPY-FL-labeled R119K EcSufE in the C51A/E107C background (natural protein, Escherichia coli)
# chain: B1 chain with A116T, R119K
# modifications: BODIPY-FL maleimide label (labeling efficiency 60 to 80%)
# notes: EcSufE of Escherichia coli, UniProt P76194, with C51A, E107C and R119K; also called R119K SufE; source: E. coli BL21(DE3)Δsuf, pET21, purified, labeled with BODIPY-FL maleimide
# B6: BODIPY-FL-labeled T116S EcSufE in the C51A/E107C background (natural protein, Escherichia coli)
# chain: B1 chain with A116S
# modifications: BODIPY-FL maleimide label (labeling efficiency 60 to 80%)
# notes: EcSufE of Escherichia coli, UniProt P76194, with C51A, E107C and T116S; also called T116S SufE; source: E. coli BL21(DE3)Δsuf, pET21, purified, labeled with BODIPY-FL maleimide
# B7: BODIPY-FL-labeled R119A EcSufE in the C51A/E107C background (natural protein, Escherichia coli)
# chain: B1 chain with A116T, R119A
# modifications: BODIPY-FL maleimide label (labeling efficiency 60 to 80%)
# notes: EcSufE of Escherichia coli, UniProt P76194, with C51A, E107C and R119A; also called R119A SufE; R119A EcSufE (in double mutant background); source: E. coli BL21(DE3)Δsuf, pET21, purified, labeled with BODIPY-FL maleimide
# B8: EcSufS, untagged (wild type) (enzyme, Escherichia coli)
# chain: MIFSVDKVRADFPVLSREVNGLPLAYLDSAASAQKPSQVIDAEAEFYRHGYAAVHRGIHTLSAQATEKMENVRKRASLFINARSAEELVFVRGTTEGINLVANSWGNSNVRAGDNIIISQMEHHANIVPWQMLCARVGAELRVIPLNPDGTLQLETLPTLFDEKTRLLAITHVSNVLGTENPLAEMITLAHQHGAKVLVDGAQAVMHHPVDVQALDCDFYVFSGHKLYGPTGIGILYVKEALLQEMPPWEGGGSMIATVSLSEGTTWTKAPWRFEAGTPNTGGIIGLGAALEYVSALGLNNIAEYEQNLMHYALSQLESVPDLTLYGPQNRLGVIAFNLGKHHAYDVGSFLDNYGIAVRTGHHCAMPLMAYYNVPAMCRASLAMYNTHEEVDRLVTGLQRIHRLLG
# modifications: PLP (pyridoxal 5'-phosphate) cofactor
# notes: EcSufS, cysteine desulfurase SufS of Escherichia coli, UniProt P77444; Untagged version used for crystallography and with the EcSufE variants; In samples with cysteine the active site cysteine is thought to carry a persulfide; also called SufSA; SufSB
# What was measured:
# SufE (Escherichia coli) = SufE (Escherichia coli) (UniProt P76194); assay: fluorescence polarization; conditions: cited from earlier work
# [1] = molecular target: B8; assay: fluorescence polarisation; 100 nM BODIPY-FL-labeled EcSufE titrated with EcSufS; 50 mM Mops pH 8.0, 150 mM NaCl, 0.1 mg/ml bovine serum albumin, 25 °C, 30 min; absence of cysteine; apparent KD; conditions: both partners purified
# [2] = molecular target: B8; assay: fluorescence polarisation; 100 nM BODIPY-FL-labeled EcSufE titrated with EcSufS; 50 mM Mops pH 8.0, 150 mM NaCl, 0.1 mg/ml bovine serum albumin, 25 °C, 30 min; presence of 500 μM cysteine; apparent KD; conditions: both partners purified
# [3] = molecular target: B8; assay: crystal structure; 230 μM SufS, 230 μM SufE (C51A, E107C) and 2 mM Cys; sitting drop vapor diffusion, PEG2000 MME, 0.1 M KSCN, 20 °C; conditions: both partners purified
# [4] = molecular target: the molecule itself; assay: as above
Molecule,Kd [1],Kd [2],other results
SufS (from UniProt P77444),,,Kd (SufE (Escherichia coli)): 5000 nM
B1,2300 nM,800 nM,
B2,5900 nM,3600 nM,
B3,7000 nM,500 nM,
B4,,,stoichiometry N [3]: 1
B5,1600 nM,900 nM,
B6,2200 nM,3100 nM,
B7,300 nM,500 nM,
B8,,,binding result [4]: binds
